Experimental data: patent US20240016923A1 (UNIVERSITY OF MARYLAND COLLEGE PARK, published 2024)
Ends that are not written are not given here.

B1: secreted E1E2 with c-Fos/c-Jun leucine zipper scaffold (sE1E2.LZ) (other)
chain 1: YQVRNSSGLYHVTNDCPNSSIVYEAADAILHTPGCVPCVREGNASRCWVAVTPTVATRDGKLPTTQLRRHIDLLVGSATLCSALYVGDLCGSVFLVGQLFTFSPRRHWTTQDCNCSIYPGHITGHRMAWDMMMNWSPTAALVVAQLLRIPQAIMDMIAPGGRIARLEEKVKTLKAQNSELASTANMLREQVAQLKQKVMNYRRRRRR
chain 2: ETHVTGGSAGRTTAGLVGLLTPGAKQNIQLINTNGSWHINSTALNCNESLNTGWLAGLFYQHKFNSSGCPERLASCRRLTDFAQGWGPISYANGSGLDERPYCWHYPPRPCGIVPAKSVCGPVYCFTPSPVVVGTTDRSGAPTYSWGANDTDVFVLNNTRPPLGNWFGCTWMNSTGFTKVCGAPPCVIGGVGNNTLLCPTDCFRKHPEATYSRCGSGPWITPRCMVDYPYRLWHYPCTINYTIFKVRMYVGGVEHRLEAACNWTRGERCDLEDRDRSELSPLLLSTTQWQVLPCSFTTLPALSTGLIHLHQNIVDVQYLYGVGSSIASWAIPGGLTDTLQAETDQLEDKKSALQTEIANLLKEKEKLEFILAAYHHHHHH
notes: It is written here as the two chains expected after furin cleavage

What was measured:
[1] = target: T1, CD81 large extracellular loop (CD81-LEL) (UniProt P60033 113-201); test: SPR (Biacore T200); sE1E2.LZ amine-coupled to a CM5 chip, CD81-LEL injected; 1:1 model
T1 construct: domain: large extracellular loop (LEL); also called CD81 receptor
T1 sequence (looked up): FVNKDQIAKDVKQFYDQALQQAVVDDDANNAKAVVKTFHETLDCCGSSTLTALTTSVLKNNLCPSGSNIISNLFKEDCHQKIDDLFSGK

[2] = target: T1, CD81 large extracellular loop (CD81-LEL); test: SPR (Biacore T200), antigen amine-coupled on CM5 chip, CD81-LEL injected, single cycle kinetics, 1:1 model
[3] = target: T2, membrane-bound E1E2 (mbE1E2) (Hepatitis C virus, isolate H77C …, UniProt P27958 192-746); test: dose-dependent ELISA, antigen captured by GNA lectin
T2 construct: Extracted from Expi293 membranes with detergent and purified; a heterogeneous mix of oligomers

[4] = target: B1; test: as above
c-Fos peptide = target: T3, c-Fos peptide (human); test: circular dichroism spectroscopy of mixed peptides
T3 construct: Synthetic biotinylated peptide

## B1
[1]
  koff: 0.00067 s⁻¹
  kon: 63000 M⁻¹ s⁻¹
[2]
  Kd: 10.8 nM

B2: HC84.24 (antibody, V domains shown)
VH: QVQLVQSGAEVKKPGSSVKVSCKASGGTFSLNSLSWVRQAPGQGLEWMGTIIPIVGIANYAQKFQGRVTITADKSTGTAYMDLSSLSDDTAVYFCARELYSGTGFFRLEALDYWGQGTLVTVSS
VL: DIQMTQSPATLSLSPGERATLSCRASQSVSSYLAWYQQKPGQAPRLLIYDASNRATGIPARFIAGGSGTDFTLTISSLEPEDFAVYYCQQYGSPQTFGQGTKLEIKR
[3]
  Kd: 0.5 nM
[4]
  Kd: 1.3 nM

B3: c-Jun peptide (peptide)
peptide: RIARLEEKVKTLKAQNSELASTANMLREQVAQLKQKVMNY
modifications: also: biotinylated, position not given here
notes: Synthetic biotinylated peptide
c-Fos peptide
  binding result: binds
